Reference: paper PMC4456301 (Structure (London, England : 1993), 2015)

Biological target: the molecule itself
Test: AUC

B1: R135_50, a variant of Mimivirus R135 lacking the first 50 amino acids (domain or fragment)
chain: TKDNLTGDIVIIGAGAAGSLLAHYLARFSNMKIILLEAGHSHFNDPVVTDPMGFFGKYNPPNENISMSQNPSYSWQGAQEPNTGAYGNRPIIAHGMGFGGSTMINRLNLVVGGRTVFDNDWPVGWKYDDVKNYFRRVLVDINPVRDNTKASITSVALDALRIIAEQQIASGEPVDFLLNKATGNVPNVEKTTPDAVPLNLNDYEGVNSVVAFSSFYMGVNQLSDGNYIRKYAGNTYLNRNYVDENGRGIGKFSGLRVVSDAVVDRIIFKGNRAVGVNYIDREGIMHYVKVNKEVVVTSGAFYTPTILQRSGIGDFTYLSSIGVKNLVYNNPLVGTGLKNHYSPVTITRVHGEPSEVSRFLSNMAANPTNMGFKGLAELGFHRLDPNKPANANTVTYRKYQLMMTAGVGIPAEQQYLSGLSPSSNNLFTLIADDIRFAPEGYIKIGTPNIPRDVPKIFFNTFVTYTPTSAPADQQWPIAQKTLAPLISALLGYDIIYQTLMSMNQTARDSGFQVSLEMVYPLNDLIYKLHNGLATYGANWWHYFVPTLVGDDTPAGREFADTLSKLSYYPRVGAHLDSHQGCSCSIGRTVDSNLKVIGTQNVRVADLSAAAFPPGGNTWATASMIGARAVDLILGFPYLRDLPVNDVPILNVN
stoichiometry N: 2
